Among the data in paper PMC12126490 (2025) are Kd values, retold here.

The test concerns the target chromoshadow domain of HP1α (HP1αCSD, aa 109–185 of HP1α) (human, UniProt P45973 109-185).

chromoshadow domain of HP1α (HP1αCSD, aa 109–185 of HP1α), sequence (P45973 109-185): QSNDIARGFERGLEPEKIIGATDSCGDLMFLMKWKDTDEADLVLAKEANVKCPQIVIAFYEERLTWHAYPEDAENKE

By Kd is commonly meant the constant that tells how readily two partners part at equilibrium. Low readings indicate a tighter complex, high ones a looser complex. As to RKVPRVSLERL [HP1 box-containing KAP1 peptide (KAP1_(Hbox), aa 483–493 of KAP1)], the Kd stood at 1600 nM.
